Laboratory results as given in paper doi:10.1101/2023.03.31.535174.

Molecular target: T1, AP2-I_D3 (AP2 domain 3) (Plasmodium falciparum, UniProt Q8IJW6 775-824)
T1 chain: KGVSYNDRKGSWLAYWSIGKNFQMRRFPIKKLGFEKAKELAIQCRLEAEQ
Test: EMSA

B1: AGTGCATTA probe with distal shape mutations (series, up to six point mutations) (dsDNA)
DNA 1: GATAAAATGAGTAAAGTGCATTAAATGTTGTACACC
DNA 2: GGTGTACAACATTTAATGCACTTTACTCATTTTATC
  binding result: binds
